Measurements from the DeepSol protein solubility set.

Experiment: soluble on expression in E. coli; label from the status in PepcDB or PDB records

With “MERSLDSLAGMAKSAFGAGTSAAMRQATSPKTILEYIINFFTCGGIRRRNETQYQELIETMAETLKSTMPDRGAPLPENIILDDMDGCRVEFNLPGENNEAGQVIVRVSKGDHSETREIPLASFEKICRALLFRCEFSLPQDSVILTAQGGMNLKGAVLTGANLTSENLCDADLSGANLEGAVLFMADCEGANFKGANLSGTSLGDSNFKNACLEDSIMCGATLDHANLTGANLQHASLLGCSMIECNCSGANMDHTNLSGATLIRADMSGATLQGATIMAAIMEGAVLTRANLRKASFISTNLDGADLAEANLNNTCFKDCTLTDLRTEDATMSTSTQTLFNEFYSENI” as the sequence, how does the “soluble on expression in E. coli” value read?
Its value is “not soluble”.

For “MESENIISAADKARILAEALPYIRRFSGSVAVIKYGGNAMTEPALKEGFARDVVLLKLVGIHPVIVHGGGPQINAMLEKVGKKGEFVQGMRVTDKEAMDIVEMVLGGHVNKEIVSMINTYGGHAVGVSGRDDHFIKAKKLLIDTPEQNGVDIGQVGTVESIDTGLVKGLIERGCIPVVAPVGVGEKGEAFNINADLVAGKLAEELNAEKLLMMTNIAGVMDKTGNLLTKLTPKRIDELIADGTLYGGMLPKIASAVEAAVNGVKATHIIDGRLPNALLLEIFTDAGIGSMILGGGEDA”, which “soluble on expression in E. coli” value is on record?
The value was “not soluble”.

Which “soluble on expression in E. coli” value does the source give for “MESTSTTVPSIVVYVTVPNKEAGKRLAGSIISEKLAACVNIVPGIESVYWWEGKVQTDAEELLIIKTRESLLDALTEHVKANHEYDVPEVIALPIKGGNLKYLEWLKNSTRES” here?
The value was “soluble”.

For “MESVRRGKLMKNKKIKFDVYLNGIAYHCIKCGFCCDAPTVTKKDLAKIAGYLKIPFDEVLKRYVRFFNGYIGELKEVGGKCIFLDKKTKKCKIYKVRPLICRLRPYSVQVRNGKLTLTYDIWFLRYCRGLYLGDGKVEDEYFKYAELVLKYLGFEEGVDEEEFKRAKERLLEESLKYRKKKDLEHHHHHH”, which “soluble on expression in E. coli” value is on record?
Its value is “soluble”.

For “METCDLLAFGAHPDDVEIGMGGTIAKYVRRGYRIVICDLTQAELSSNGTVDERQREAAEAARRLGVSERFNLGLPDRGLYVEEEAIRQIAAVIRRCRPRLVFAPYWEDRHPDHGRCARLVEEAVFSAGIRRYGAGELGDAHRVRAVYYYMINAFCRPHFLIDISETIDDKLDSLRAYESQFQKRPGSVDTPLTNGYIEMIESRERWFGQQIGAAYAEGFLTKTPIHLSNLFEEER”, which “soluble on expression in E. coli” value is on record?
Its value is “not soluble”.

For “METLGVQTNSELREELNRLKEENARLKKELNQHQVIVNNTLDAIFICDNEMRIVQANEATERMLQVDSEDLKKRSVLDFLFSIPKDELNLSVKKFFKKGFLWKEVPIRLDCGATKYIEFLAKRGIGEDFFFVVMRDIS”, which “soluble on expression in E. coli” value is on record?
The value was “not soluble”.

For “METLIAISRWLAKQHVVTWCVQQEGELWCANAFYLFDAQKVAFYILTEEKTRHAQMSGPQAAVAGTVNGQPKTVALIRGVQFKGEIRRLEGEESDLARKAYNRRFPVARMLSAPVWEIRLDEIKFTDNTLGFGKKMIWLRDSGTEQA”, which “soluble on expression in E. coli” value is on record?
Its value is “soluble”.

Which “soluble on expression in E. coli” value does the source give for “METRREERIGQLLQELKRSDKLHLKDAAALLGVSEMTIRRDLNNHSAPVVLLGGYIVLEPRSASHYLLSDQKSRLVEEKRRAAKLAATLVEPDQTLFFDCGTTTPWIIEAIDNEIPFTAVCYSLNTFLALKEKPHCRAFLCGGEFHASNAIFKPIDFQQTLNNFCPDIAFYSAAGVHVSKGATCFNLEELPVKHWAMSMAQKHVLVVDHSKFGKVRPARMGDLKRFDIVVSDCCPEDEYVKYAQTQRIKLMYLEHHHHHH” here?
The value was “soluble”.

For “METYAVFGNPIAHSKSPFIHQQFAQQLNIEHPYGRVLAPINDFINTLNAFFSAGGKGANVTVPFKEEAFARADELTERAALAGAVNTLMRLEDGRLLGDNTDGVGLLSDLERLSFIRPGLRILLIGAGGASRGVLLPLLSLDCAVTITNRTVSRAEELAKLFAHTGSIQALSMDELEGHEFDLIINATSSGISGDIPAIPSSLIHPGIYCYDMFYQKGKTPFLAWCEQRGSKRNADGLGMLVAQAAHAFLLWHGVLPDVEPVIKQLQEELSALEHHHHHH”, which “soluble on expression in E. coli” value is on record?
Its value is “soluble”.

With “METYLEIETLIKRIFNSFRHEVEAVLDKRLSGSEYRVLSLISSGLTKTSDLAKTLDVSASHITAITDTLVEEKLITRHRSEVDRRIIELKLTSNAEEFVKEIDKKKKEMIVKRFAVFSEYEQAEFRKLLKKLADGSQSNK” as the sequence, how does the “soluble on expression in E. coli” value read?
Its value is “not soluble”.

Which “soluble on expression in E. coli” value does the source give for “MEVDEDIELQKHQEQQSRKLQRFSEDNTGLMRNWNNPSSRIIRVSRASGGKDRHSKVLTSKGLRDRRIRLSVATAIQFYDLQDRLGFDQPSKAVEWLINAASDSITDLPLLNTNFDHLDQNQNQTKSACSSGTSESSLLSLSRTEIRGKARERARERTAKDRDKDLQNAHSSFTQLLTGGFDQQPSNRNWTGGSDCFNPVQLQIPNSSSQEPMNHPFSFVPDYNFGISSSSSAINGGYSSRGTLQSNSQSLFLNNNNNITQRSSISSSSSSSSPMDSQSISFFMATPPPLDHHNHQLPETFDGRLYLYYGEGNRSSDDKAKERR” here?
The value was “not soluble”.

With “MEVKALAHAKNDSVAVATDDLKEGEEIQVAFLDNNEKTKITTAEVIPLGHKISLKDIKKGENVIEYGEVIGAATKDIKRGEHVHIHNIKSLRW” as the sequence, how does the “soluble on expression in E. coli” value read?
The value was “not soluble”.

With “MEVRFKIYRYNPEVDKKPYYDEYTVEVENEGVKVLTALELIKEQDPTLALRRSCREGVCGSDGMNINGKNRLACITSVGELKQPIKVNPLPGLPVIRDLIVDMKQFYKNYEKVKPYLINDDEPPVKERLQSPEDRAKLDGLYECILCACCTTSCPSFWWNPDKFIGPSGLLQAYRFIADSRDTATEQRLEDLKDPFSLFRCRTIMNCVSVCPKGLNPTEAIGKIRSALLKKNV” as the sequence, how does the “soluble on expression in E. coli” value read?
Its value is “not soluble”.

For “MEVTDVRLRRVNTEGRMRAIASITLDHEFVVHDIRVIDGNNGLFVAMPSKRTPDGEFRDIAHPINSGTRSKIQDAVLTEYHRLGELEEVEFEEAGAS”, which “soluble on expression in E. coli” value is on record?
The value was “not soluble”.

Which “soluble on expression in E. coli” value does the source give for “MEYFMSGKSIFDKLWDRHVITGDEGQPQLMYVDQHYIHEVTSPQAFQGLRDAGRKVRRPDLTFGTFDHNVPTVNIFDIRDAISKAQIDKLAENVIEFGIDNASHGSDKQGIVHMVGPETGRTQPGKFIVCGDSHTATHGAFGTIAFGIGTSEVEHVFATQTLWQVKPKK” here?
Its value is “not soluble”.

For “MEYGDRHITVVDEHGNEQLCEILFTFESDDFGKSYVFYYPVGVEAEDENGETEVHVSAFIPGDENKEGELLPIETEEEWDMIEEVWNTFCAEQEEEDDE”, which “soluble on expression in E. coli” value is on record?
Its value is “not soluble”.

With “MEYIKRKKTRKVRVGDIYIGGDAKITVQSMTNTDTRDVEATVNQIKMLEDIGCDIIRVAVVDQEAAEAIKEIKKSIKIPLVADIHFDYRLAISSMENGADKIRLNPGNIGDRERVRKVVEVAKSRQIPIRIGVNSGSLEKNVIEKYGGITPEAMVESALQHVRILEELDFYDIVISLKASSVPMTIAAYRLMSEKTDYPLHIGVTEAGTVFKGTIKSCAGLGCLLAEGIGDTIRVSLTGDPKEEVLVGHELLRALGIEKGGIELVSCPTCGRCQIDLIGIAEKVEERLEGLDKNIKVAIMGCAVNGPGEAKEADIGIAGGKGEVLLFKKGVIVRKIPQERAVEELMEEILRM” as the sequence, how does the “soluble on expression in E. coli” value read?
The value was “soluble”.

For “MEYPMSYTFRATFPALFLSLMLPCALPALAADPAPAKDAAAQAPVERAPLLSRSQEDAIALERQLPREDQQQLQAGDESFLALWKPANTDAPQGAVIILPGDAESPDWPDTVGPLRRKFPDVGWSSLSITLPDAQDNTLLPREPDAAAGDANAAKPEETPKDAAAKAPDPAAEAEALAAVATAKAAADEERNKAQAELIFARIESAISFAQQNKARNIVLLGHSSGAYWAARFLNERPSPAVQKLVMVAAREPVDAAPSLLAMVPGLKIKTADFIYKNPEDQAAKARLQASKRAKGPGFTQIGLINIVGNEETEQEQMFRRIRGWVEAKEEK”, which “soluble on expression in E. coli” value is on record?
Its value is “not soluble”.

With “MFADRLFNAMERNEPAPGMVLVAAPSMESEDFARSVILIIEHSEYATFGVNLASRSDVAVFNVIPEWVPCVTKPQALYIGGPLNQQSVVGVGVTAQGVDAARVDNLTRLANRLVMVNLGADPEEIKPLVSGMRLFAGHAEWAPGQLAQEIENGDWFVAPALPSDVTAPGSVDVWGDVMRRQPMPLPLYSTFPVNVVGENLEHHHHHH” as the sequence, how does the “soluble on expression in E. coli” value read?
Its value is “soluble”.

With “MFAIAHNSILRDSLAGILQLSPERVFDEYRPPPFTGNIVVGVEDLRDANLRFAVRYFLANVEKSISLFIVKQEWSENDEKFFDDLVKTEYRRAHDLNQVAIDRVNKLPDNEWKSDRLEQLNEWRTIPAINYSLLTLNDNLKNQIDALAKVTPCTISDDEEQITNKPPVLHWTADPLEGEIQFIAQLNFPLSGPDDSSFREICRLLKPHFETSYEWTGGILLTSDPVRLHVQRFNDTQIELAARICVDELEGDEADRPIRFIWPYLAVSLKQALQVLGEHPHLQYSISFVPFGSIFFKSSEIEARVFDATVFCSTALKYDKVGFRVGEDVHHVDIAHIFPDGTYPSLSRLLSMNPPSPRFSRPESVNDSVSPSLMSEPPTPGGLVAPHNRGRRVSFGTIKLMSDGPTTPEIPILNGNSNDGSAKTVDAFIDKMLQQTMDQLAV” as the sequence, how does the “soluble on expression in E. coli” value read?
The value was “not soluble”.

For “MFDRYESGERAILVHVFFSQDRDTDDLLEFESLVSSAGIESLQVVTGSRKAPHPKYFVGEGKAEEIAQAVKETGAFVVLFNHALTPAQERNLERLCECRVIDRTGLILDIFAQRARTHEGKLQVELAQLRHLATRLVRGWTHLERQKGGIGLRGPGETQLETDRRLLRNRISQILLRLERVEKQREQGRRSRVRADVPTVSLVGYTNAGKSTLFNKITSAGVYVADQLFATLDPTLRRIQVDDVGDTVLADTVGFIRQLPHDLVAAFKATLQETRQASLLLHVVDAADPRLDENIDAVNDVLAEIEADEIPALLVMNKIDMLDDFVPRIDRNEENLPIRVWLSAQTGDGIPLLFQALTERLSGEIAQYTLHLPPQAGRLRSRFYQLQAIEKEWIEEDGQIGLVIRMPIADWRRLCKKEQELMDYIALEHHHHHH”, which “soluble on expression in E. coli” value is on record?
The value was “not soluble”.

Which “soluble on expression in E. coli” value does the source give for “MFDVDIKFGDVYVRNIEEKDIGELKEILKDKKFYLNDEELKEIFLEYYMSECEFFTKILKKGKFVGVFRGRIEFKSSNMAWISYFYVDERYSSYKDSQDILMNILEYFSESFGVTDFITGVTNSEKDMIELWENNDFKTVRINKEFYSDRGYKEDLVIMKKYSAI” here?
The value was “not soluble”.

Which “soluble on expression in E. coli” value does the source give for “MFEAEIDCNIPGALWCGELYVLEQDVVFPDLLRIDRFCTSKSKKMFRFDVYPGSDFPTVDLELTYKFNHNCSADGETYCVKPKWSKKVNGRVGQSVGFDIDARPHGKPSRCKPPFYF” here?
Its value is “not soluble”.

With “MFEKQEVEQKKELKILEIIKEAIELGASDIHLTAGAPPAVRIDGYIKFLKDFPRLTPEDTQKLAYSVMSEKHRQKLEENGQVDFSFGVRGVGRFRANVFYQRGSVAAALRSLPAEIPEFKKLGLPDKVLELCHRKMGLILVTGPTGSGKSTTIASMIDYINQTKSYHIITIEDPIEYVFKHKKSIVNQREVGEDTKSFADALRAALREDPDVIFVGEMRDLETVETALRAAETGHLVFGTLHTNTAIDTIHRIVDIFPLNQQEQVRIVLSFILQGIISQRLLPKIGGGRVLAYELLIPNTAIRNLIRENKLQQVYSLMQSGQAETGMQTMNQTLYKLYKQGLITLEDAMEASPDPKELERMIRGGRHHHHHH” as the sequence, how does the “soluble on expression in E. coli” value read?
Its value is “soluble”.

For “MFEKSFTLCDMEPTEINGGRFYARPLHNDERIDDSPALQLVDAHLTVDEARTAWNHDTIYTWAVCEQTNVEMIALAALHITETATVLDIAPVGDPNRKLPNDPVLTPKTVGDAVTEIRGPITRWCTAHGINISN”, which “soluble on expression in E. coli” value is on record?
Its value is “not soluble”.
